For experiment [1], the target named is T1, human CD38 on cells (human, UniProt P28907 1-300).
T1 construct: The cell that carried CD38 is named under assay in each row; also called CD38 on Raji, RPMI8226, OPM2, CCRF-CEM, human erythrocytes, CD38 CHO-K1 transfectants
Briefly: FACS Scatchard on OPM2 cells, IgG format; * different experiment.

Experiment [2] concerns the target T1, human CD38 on cells. Briefly: FACS Scatchard on OPM2 cells, IgG format.
Experiment [3] concerns the target T1, human CD38 on cells. Briefly: FACS Scatchard on CCRF-CEM cells, single measurement.
In experiment [4] the target is T1, human CD38 on cells. Briefly: cell-based or functional assay.
Experiment [5] concerns the target T2, human CD38 Fc-fusion aa 45-300 (human, UniProt P28907 45-300).
T2 construct: Expressed in HEK293 behind a human Vkappa leader, which is left out here; also called CD38-Fc fusion protein; CD38 Fc-Fusion protein
Briefly: ELISA on CD38 Fc-fusion protein, IgG format.

For experiment [6], the target named is T1, human CD38 on cells. Briefly: FACS Scatchard on OPM2 cells, mean from 2 measurements.
The target of experiment [7] is T1, human CD38 on cells. Briefly: FACS Scatchard, IgG1 on Raji cells.
The target of experiment [8] is T1, human CD38 on cells. Briefly: FACS Scatchard on RPMI8226 cells, single measurement.
Experiment [9] deals with T1, human CD38 on cells. Briefly: FACS Scatchard on RPMI8226 cells.
Experiment [10] deals with CD38 (antigen of the Bioveris affinity determination) (Homo sapiens (Human), UniProt P28907 45-300, limits assumed). Briefly: Bioveris, Fab format.
In experiment [11] the target is T3, Cynomolgus CD38 on PBMCs (Lymphocytes) (cynomolgus monkey, UniProt Q5VAN0).
T3 construct: native protein on lymphocytes of the PBMC fraction of whole blood
Briefly: FACS, Fab format, cynomolgus lymphocytes (PBMC fraction). Background: Flow cytometry measures light scatter and fluorescence of single cells or particles in a stream.

Experiment [12] addresses T4, Cynomolgus CD38 on Erythrocytes (cynomolgus monkey, UniProt Q5VAN0).
T4 construct: native protein on erythrocytes (pellet of the density gradient)
Briefly: FACS, Fab format, cynomolgus erythrocytes.

The target of experiment [13] is T2, human CD38 Fc-fusion aa 45-300. Briefly: SPR (Biacore), Fab format. On the technique in general: SPR reads the build-up and loss of mass on a sensor chip optically.
Experiment [14] addresses T4, Cynomolgus CD38 on Erythrocytes. Briefly: FACS, Fab format, cynomolgus erythrocytes; column taken from the order of panel A [Continued].
The target of experiment [15] is T3, Cynomolgus CD38 on PBMCs (Lymphocytes). Briefly: FACS, Fab format, cynomolgus lymphocytes (PBMC fraction); column taken from the order of panel A [Continued].
Experiment [16] has as its target T1, human CD38 on cells. Briefly: FACS Scatchard on RPMI8226 cells; * different experiment.
Experiment [17] concerns the target T2, human CD38 Fc-fusion aa 45-300. Briefly: SPR (Biacore), Fab on immobilized CD38 Fc-fusion.
Experiment [18] deals with T1, human CD38 on cells. Briefly: FACS Scatchard on RPMI8226 cells, single measurement; RPMI8226 cells, FACS Scatchard; single measurement.
For experiment [19], the target named is T1, human CD38 on cells. Briefly: FACS Scatchard on OPM2 cells, IgG format; * different experiment; OPM2 cells, FACS Scatchard, IgG format; different experiment.
The target in experiment [20] is T1, human CD38 on cells. Briefly: FACS Scatchard on CCRF-CEM cells, single measurement; CCRF-CEM cells, FACS Scatchard; single measurement.
Experiment [21] deals with T1, human CD38 on cells. Briefly: FACS Scatchard on OPM2 cells, mean from 2 measurements; OPM2 cells, FACS Scatchard; mean from 2 measurements.
In experiment [22] the target is T2, human CD38 Fc-fusion aa 45-300. Briefly: SPR (Biacore), Fab on immobilized CD38 Fc-fusion; 54 is the standard deviation (n = 3).
Experiment [23] shares this target. Briefly: SPR (Biacore), Fab on immobilized CD38 Fc-fusion; 84 taken as the standard deviation (n = 4) by footnote d.

A word on the EC50: it is the midpoint of the concentration-response curve. By Kd is commonly meant a measure of binding affinity in units of concentration.

B1: MOR03087 IgG1 (antibody, V domains shown)
VH: QVQLVESGGGLVQPGGSLRLSCAASGFTFSSYYMNWVRQAPGKGLEWVSGISGDPSNTYYADSVKGRFTISRDNSKNTLYLQMNSLRAEDTAVYYCARDLPLVYTGFAYWGQGTLVTVSS
VL: DIELTQPPSVSVAPGQTARISCSGDNLRHYYVYWYQQKPGQAPVLVIYGDSKRPSGIPERFSGSNSGNTATLTISGTQAEDEADYYCQTYTGGASLVFGGGTKLTVLG
Turning to B1, the concentration for a half-maximal effect (EC50) turned out to be 17.4 nM in the experiment with human CD38 on cells [1]; 5.7 nM with human CD38 on cells [2]; 14.7 nM in the experiment with human CD38 on cells [3]; 17.5 nM with human CD38 on cells [6]; 6.3 nM with human CD38 on cells [8]. Also, the “ADCC RPMI8226 EC50” value with human CD38 on cells [4] is 0.14 nM. Moreover, the “CDC CHO EC50” value with human CD38 on cells [4] is 3.4 nM. Also, the “ELISA CD38 Fc-Fusion protein (% Reactivity of MOR03087)” value in experiment [5] is 100%. The molecule further showed a dissociation constant (Kd) with human CD38 on cells [7] of 5 nM.

B2: MOR03087 Fab (Fab, V domains shown)
VH: QVQLVESGGGLVQPGGSLRLSCAASGFTFSSYYMNWVRQAPGKGLEWVSGISGDPSNTYYADSVKGRFTISRDNSKNTLYLQMNSLRAEDTAVYYCARDLPLVYTGFAYWGQGTLVTVSS
VL: DIELTQPPSVSVAPGQTARISCSGDNLRHYYVYWYQQKPGQAPVLVIYGDSKRPSGIPERFSGSNSGNTATLTISGTQAEDEADYYCQTYTGGASLVFGGGTKLTVLG
notes: Fab format
Regarding B2, the EC50 with human CD38 on cells [9] worked out at 5.37 nM. Also, the results for the dissociation constant (Kd) in [10] and in experiment [13] were 0.0488 nM and 5.68 nM, respectively. Further, the binding result in experiment [11] and in [12] was “binds” each time.

B3: MOR03088 Fab (Fab, V domains shown)
VH: QVQLVESGGGLVQPGGSLRLSCAASGFTFSSYAMNWVRQAPGKGLEWVSGISSWGSSTYYADSVKGRFTISRDNSKNTLYLQMNSLRAEDTAVYYCAREDGSYMTDYFAYWGQGTLVTVSS
VL: DIELTQPPSVSVAPGQTARISCSGDNIGHYYVSWYQQKPGQAPVLVIYSDSNRPSGIPERFSGSNSGNTATLTISGTQAEDEADYYCQSYNGTYVFGGGTKLTVLG
notes: Fab format
On to B3, for which the binding result in experiment [14] and in [15] was “binds” each time. For the same molecule, the Kd in experiment [10] was determined as 2.15 nM; in experiment [13], 41.4 nM; in experiment [17] it was 95 nM. Besides, the response with human CD38 on cells [16] was half-maximal at 24.6 nM (EC50).

B4: MOR03088 IgG (antibody, V domains shown)
VH: QVQLVESGGGLVQPGGSLRLSCAASGFTFSSYAMNWVRQAPGKGLEWVSGISSWGSSTYYADSVKGRFTISRDNSKNTLYLQMNSLRAEDTAVYYCAREDGSYMTDYFAYWGQGTLVTVSS
VL: DIELTQPPSVSVAPGQTARISCSGDNIGHYYVSWYQQKPGQAPVLVIYSDSNRPSGIPERFSGSNSGNTATLTISGTQAEDEADYYCQSYNGTYVFGGGTKLTVLG
In the case of B4, the EC50 with human CD38 on cells [18] was 24.6 nM; with human CD38 on cells [19] it was 15.3 nM; with human CD38 on cells [20], 25.5 nM; with human CD38 on cells [21], 2.6 nM. Moreover, the “ELISA CD38 Fc-Fusion protein (% Reactivity of MOR03087)” value in [5] was 18%.

B5: MOR03127 Fab (Fab, V domains shown)
VH: QVQLVQSGAEVKKPGESLKISCKGSGYSFSTSWVGWVRQMPGKGLEWMGIIDPDISYTSYSPSFQGQVTISADKSISTAYLQWSSLKASDTAMYYCARYLMGLGYDVWGQGTLVTVSS
VL: DIALTQPASVSGSPGQSITISCTGTSSDVGAINYVSWYQQHPGKAPKLMIYDVNKRPSGVPDRFSGSKSGNTASLTISGLQAEDEADYYCGSYTMQVGSYVFGGGTKLTVLG
notes: Fab format
Consider B5, for which binding in experiment [22] was put at a Kd of 168 nM.

B6: MOR03128 Fab (Fab, V domains shown)
VH: QVQLKESGPALVKPTQTLTLTCTFSGFSLSSSGMSVSWIRQPPGKALEWLARIYSDDSKSYSTSLKTRLTISKDTSKNQVVLTMTNMDPVDTATYYCARAAHWNGPLFDVWGQGTLVTVSS
VL: DIELTQPPSVSVAPGQTARISCSGDNIGHYYAHWYQQKPGQAPVVVIYDDNDRPSGIPERFSGSNSGNTATLTISGTQAEDEADYYCQAYTGDGGRVFGGGTKLTVLG
notes: Fab format
In turn, B6 yielded a dissociation constant Kd in [23] of 117 nM.
